Measured values as given in the DeepSol protein solubility set.

Experiment: soluble on expression in E. coli; label from the status in PepcDB or PDB records

Sequence	soluble on expression in E. coli
MGSDKIHHHHHHMTSVTPCASSSSEMNDFLQAHPDTQYVDLLISDMNGVVRGKRIERASLHKVYEKGINLPASLFALDINGSTVESTGLGLDIGDADRICFPIPGTLSDEPWQKRPTAQLLMTMHELDGQPFFADPREVLRQVVSKFDDLGLTICAAFELEFYLIDQDNLNGRPQPPRSPISGKRPQSTQVYLIDDLDEYADCLQDMLEAAKEQGLPADAIVKESAPAQFEVNLHHVADPLKACDYAILLKRLIKNVAYDHEMDTTFMAKPYPGQAGNGLHVHISLLDKKTGKNIFASDDPLQSDTLRHAIGGVLETMPASMAFLCPNINSYRRFGAQFYVPNAPSWGLDNRTVAVRVPTDSSENVRLEHRVAGADANPYLMLAAILAGVHHGLTNKVEPEAPIEGNSYEQLEQSLPNNLRDALRALDDSEVLNQYISPDYIDIFVACKESELAEFEVSISDLEYNWYLHTV	not soluble
MGSDKIHHHHHHMTTESIAVLVIDDDPAILQNIVCYLEDSDFICFGAADGAAGIETFERERPDAVIVDLNMPGMNGRDVIARINAQSPTTPVIVVSGTGVIDEAVESMRVGAWDFLSKPVRRMEELENAVRAGLRRARTMRESNEYKETLERMVKRRTRELQLANDRTEAILLATVQSLSTVINLKDAYTGTHQQRVALIAPAIAEELGMEQRAVEAVRLAALLHDVGKMGLPSEFLTKPSRLDANEMQFIRQHPQLGYDILKDIPFELPIPEMVLQHHERLDGSGYPRGLAGDDILPEARILAVADTVEAICSHRPWRPAHPFSHALHELTAGKNTLYCPDAVNSCIDLITRGDPRLTTFTATIKGLPS	not soluble
MGSDKIHHHHHHMTTKDISRPVCILGLGLIGGSLLRDLHAANHSVFGYNRSRSGAKSAVDEGFDVSADLEATLQRAAAEDALIVLAVPMTAIDSLLDAVHTHAPNNGFTDVVSVKTAVYDAVKARNMQHRYVGSHPMAGTANSGWSASMDGLFKRAVWVVTFDQLFDGTDINSTWISIWKDVVQMALAVGAEVVPSRVGPHDAAAARVSHLTHILAETLAIVGDNGGALSLSLAAGSYRDSTRVAGTDPGLVRAMCESNAGPLVKALDEALAILHEAREGLTAEQPNIEQLADNGYRSRIRYEARSGQRRAKESVSPTITSSRPVLRLHPGTPNWEKQLIHAETLGARIEVF	not soluble
MGSDKIHHHHHHMTTSTGKINLLGLTQPEMEQFFDSIGEKRFRAGQVMKWIHHFGVSDFAAMTNVGKVLREKLEAVAEIRPPEVVSEDISADGTRKWVIRVASGSCVETVYIPTDDRGTLCVSSQAGCALDCSFCSTGKQGFNSNLTAAEVIGQVWLANKSFGTVPAKVDRAITNVVMMGMGEPLLNFDNVIAAMKIMMDDLGYGISKRRVTLSTSGVVPMIDELAKHIDVSLALSLHAPNDELRNKLVPINKKYPLKVLLESCMGYMSTLGGKRVLTVEYTLLKDVNDQPEHAAQMIELLRDVPCKINLIPFNPFPHSGYERPSNNAIRRFQDLLHHGGFNVTTRTTRGDDIDAACGQLVGQVNDRTRRSERYIAVRQLSADVELPDSAASH	not soluble
MGSDKIHHHHHHMTTVIAGVSGAIGGALARRYLSSYPDRSLIGLCRRPETAPDDLRNHSGVRLMAWDAEDEQRLDVAEFKAVLEASGPVYTVIYAGGLLHDGQMFPEKRLEDIDGRSMMRSYQVNCLGFVSLMQRLAPALRGKHFKRIAAVSAKVGSISDNQLGGWYAYRASKAALNMVVKNLSIELSRRYAPLACVSLHPGTTLSSLSQPFQQSLEQLTVHEPEQTASNLFSVLESLDARDNGRFISWDGSDLPW	not soluble
MGSDKIHHHHHHMTWGFKNRLNTILPDGRAVMLAIDHGYFLGPIHGLEQPLETVKNLLPYTDSLFLTRGVLSSCIPENCSTPMVIRVSGGATVVGKDLANETIVTPVKEAVKQNAIGVGVSVFVGSDYETQTVTNLANVVSEAHDYCLPVLGITAVAKELQKREARFLALASRVCVEMGADIIKTYYCEGFEKITSTCPAPVVIAGGPKLDSIEDALNITYNALQEGAIGVDMGRNIWQSEHPAAMIQAIHGIVKNGLNVKEALQLYEDVKN	not soluble
MGSDKIHHHHHHMTWNLAGSYSETCSCELMCPCNMSFDHGATYDFCRVTLAFNVHEGSVEGTDIAGRKVVLIADTPKVMTDGNWRVGVFVDDGASEEQFDKLVQVFGGQLGGPMAGLAPLIGEMLGVQRAAIDIEDDGLLHSVRVGDEIDFQIQDIVPFGVETGEPVRFAGMFHPVGSDLVMAEAKRTRINAFGITYEGKTGLSKSSFTWAA	not soluble
MGSDKIHHHHHHMVAATSQNTFDSPRSPLYNFTMDIRPLSDVAGVILVGGRSRRMGRDKALIPLGGKPLVERVIDAFRPLFERILLVGDRGERFASYGLPVFPDIHPGSALGGLYTGLVRAGTPHVFVSACDVPWPDPRVIARLCSLREGFDVVVPRTVGGSEPLFAVYGTGCLPAMERMLREGNYRIYDFYPEVRTRYVEQAELADLVTPARTFVNVNTPEEFETIRNREEGMAIKAVSFVAKSGTGKTTLLEKVIAELKGRGYRIGVIKHDAHRFDIDHPGKDSHRLAAAGADTMLIASPEKLALVKKYDESPPLDELLATYFGDVDIVLTEGFKKSSLPKIEVHRMERSATLLCRGEEHDPTLVAVASDAALALDVPVFDLNNPAQVADFVERTFLAAGAA	not soluble
MGSDKIHHHHHHMVAKKKILFFMWSFSLGGGAEKILSTIVSNLDPEKYDIDILEMEHFDKGYESVPKHVRILKSLQDYRQTRWLRAFLWRMRIYFPRLTRRLLVKDDYDVEVSFTIMNPPLLFSKRREVKKISWIHGSIEELLKDSSKRESHRSQLDAANTIVGISKKTSNSIKEVYPDYTSKLQTIYNGYDFQTILEKSQEKIDIEIAPQSICTIGRIEENKGSDRVVEVIRLLHQEGKNYHLYFIGAGDMEEELKKRVKEYGIEDYVHFLGYQKNPYQYLSQTKVLLSMSKQEGFPGVYVEALSLGLPFISTDVGGAEELSQEGRFGQIIESNQEAAQAITNYMTSASNFDVDEASQFIQQFTITKQIEQVEKLLEE	not soluble
MGSDKIHHHHHHMVDVLVIGGGNAALCAALTAREAGASVLLLEAAPREWRGGNSQHTRNLRCMHDAPQDVLVESYPEEEFWQDLWRVTDGNTNEALARLVIRTSSQCRDWMRKHGVNFQPPLSGALHVARTNAFFMGGGKALVNAYYRSAERLGVQVRYNTPVHALELHDGEFVAALAGSERITAKACVLAAGGFESNREWLREAWGENARGEWPADNFLIRGTRFNQGVLLKFMMDAGADIIGDPSQSHCVAIDARAPLYDGGICTRVDCVSLGIVVNRDAERFYDEGEDFWPKRYAIWGRLVAQQPGQIGYSIIDSKAIGHFMPPVFPGAQANTLAELACQLGLDAEKFTHTVTQYNQACQPGHFDHTLLDDCATKNLTPAKTHWARPLDAPPYYGYALRPGITFTYLGLKVNERAAVHFAGHPSRNLFVAGEMMAGNVLGKGYTAGVGMSIGTTFGRIAGIEAARAAHKEAQHETA	not soluble
MGSDKIHHHHHHMVEHRGFDVLSLPWLDVPRQAFLTQLQTQKVPHAQLVGIDSAYGGELLSVFMARAAMCSQPTHTGGCGFCKSCQLFDAGNHPDFYQIEADGHQIKVDQIRELCSRLSATAQQSGRRVAIIHHSERLNSASANALLKTLEEPGKDTLLLLHSDTPARLMATISSRCQRLPFVAPSKTLIKNWLIQQCQIQEDVTWCLSVVGGPLKLAESLQSNSTQPSRYQTLLGFRKDWAQSLSSGHLCASLLIISEQQIIDALKVLYLLLRQILLKNGNQDAYVQAQIGNLAAKVMGMCHSLSAMPSVNYLGLCQSYVLEYRDITNK	not soluble
MGSDKIHHHHHHMVKIKGLNGNLVFIFGPGSFDEYLSFLEEKLTANKQLFSGSRVIFKGEELKKLSHSQIASLQELCLRHGVIMNNNAVTVNKGSSKDLVIYRNLRSGQKLRSEGSVIIWGDVHESAEILAAGDIIVLGKLDGIAHAGCYGDMNRLIFALSLSPGQIRIGDRLSRSPEDPDKSPHPEIAFWDGENICIKAYSSRSGLRG	not soluble
MGSDKIHHHHHHMVKKIMLHGATDYGSSNYGDYLYGEIVYDLLESKGYEVSFYNPSDFFQMYLKEYRQKQSFTKKQADAILYIPGGYFGEGHNARFRDNLIQFKRFLPLGIWASYFKKPIGVLGIGAGPNNDSLMNYGIKRIINHAQFITVRDRESFDSLKHLSPSAPVHETFDLIISSKLREEKTEQLCQLKREAKDKKIILVHYNHSKKALEKFAESISLFLENNPNYYVVVTSDSILPYEDAYYQEFRKLVRTEDCFQFKYHSPAEMTSLLKMVDVVLTCKLHVGVVATCFNKSVIAIACHPEKTARYYGAIGELQRCESLFDSSVNSIVKKLETFHLKPITIPSELVLKARSSLDYLDLFLEGLVRES	not soluble
MGSDKIHHHHHHMVKNDESQIFTKMRLTLVIPSLYSGGAERVLSIIANYWASKGWKVTLLTFCGNQPPFYDLDSRISYIPLHIARDSSNLIAAVKNNLYRIFKLRLAITASNPDIVISFMSEANVTTLLATRGLNVPVLVSERNNPKIRLTKSSIWVKLRQLTYPFAQRVIVQTQRALNYFPSSLKNRICVIPNPVLLPPNKPCKPQELFNKLPGQKLLIAVGRLESQKGFDLLLQAFANLKDDFSEWQLVILGEGILHLDLTELCHQLQLNGRVYFLGRVKNIYEFLQEADIYVMSSRFEGFPNALCEAMASGLPVISTDCPNGPREIIRDGIDGLLVPNEDVLALTSAIKLLMSDEEKRKNLATNASEIAERFSIDKIMEMWEFVVKDVVES	not soluble
MGSDKIHHHHHHMVKVLILGQGYVASTFVAGLEKLRKGEIEPYGVPLARELPIGFEDIKIVGSYDVDRAKIGKKLSEVVKQYWNDVDSLTSDPEIRKGVHLGSVRNLPIEAEGLEDSMTLKEAVDTLVKEWTELDPDVIVNTCTTEAFVPFGNKEDLLKAIENNDKERLTATQVYAYAAALYANKRGGAAFVNVIPTFIANDPAFVELAKENNLVVFGDDGATGATPFTADVLSHLAQRNRYVKDVAQFNIGGNMDFLALTDDGKNKSKEFTKSSIVKDILGYDAPHYIKPTGYLEPLGDKKFIAIHIEYVSFNGATDELMINGRINDSPALGGLLVDLVRLGKIALDRKEFGTVYPVNAFYMKNPGPAEEKNIPRIIAYEKMRIWAGLKPKWL	soluble
MGSDKIHHHHHHMVQISETSSELIQLLRIENSAPEVLQILDHADSRYIRDLKVNVSNALVTAHISEKESALLALSIAANQKNNILISGFQKLSAEKGATIEEQNEAISCASLLAGNNVFYRFRHFQQKESYNTMQAKIKMNIMMKPVLGKEFFELISLAVSAVNGCEMCVNAHEHSVREMGATEERVWDAIRLAAVITSLDKVMS	not soluble
MGSDKIHHHHHHMVQTPSKPITLDEFLKLPETEPASEYIEGKIIQKPMPQGKHSAIQSECVSVINSVVKPQRIARAFLELRCTFGDHSTVPDISVFIWSRIPREENGEIANIFLIAPDWTIEILSPDQSQTKVTKNILHCLKHGTQMGWLIDPDEQTVFVYRPQQETEVFDEPDALVPVPSFASELHLSIKDLFSWLL	not soluble
MGSDKIHHHHHHMVSSSAKLHDPEEGSAANFPDIDNLKIAFGQLPSGVVIVTSQGCGGEMVGATVSSFASLSFTPPLVMLGLAQSSTTLSAILDHGHFAVHVVAEPQQDIAMRFASSRADKFSDIDFKLSPSGVPILSEFDTCFHCALERAQSAGDHQLLIGRIVDVSTVERDTTPVAWFNRRFHICEPRALV	not soluble
MGSDKIHHHHHHMVTTRKPLRAAIIGLGRLGERHARHLVNKIQGVKLVAACALDSNQLEWAKNELGVETTYTNYKDMIDTENIDAIFIVAPTPFHPEMTIYAMNAGLNVFCEKPLGLDFNEVDEMAKVIKSHPNQIFQSGFMRRYDDSYRYAKKIVDNGDIGKIIYMRGYGIDPISGMESFTKFATEADSGGIFVDMNIHDIDLIRWFTGQDPVQAYGLTSNIAAPQLADIGEFETGVAQLKMSDGVIATLIGGRHAAHGNQVELEVMGSNGWVRIGEHPDLNRVTVFNDQGVVRPSLQSFGERFDTAFTDEVQDFVNNVIVGKQPEVTVDDGIKALKIAKACQQSANIGKLVDIQL	not soluble
